From patent publication US20240261333A1, “NOVEL TARGETS FOR ENHANCING ANTI-TUMOR IMMUNITY” (THE BROAD INSTITUTE, INC., priority 2021, published 2024)

Legend:
SYNPO (human) = SYNPO (human) (UniProt Q8N3V7); assay: co-IP with anti-FLAG, C-FLAG B3GNT2, mass spectrometry
RPL6 (human) = RPL6 (human) (UniProt Q02878); assay: as above
HNRNPH1 (human) = HNRNPH1 (human) (UniProt P31943); assay: as above
LAMC1 (human) = LAMC1 (human) (UniProt P11047); assay: as above
MAP4 (human) = MAP4 (human) (UniProt P27816); assay: as above
ARPC1B (human) = ARPC1B (human) (UniProt O15143); assay: as above
RHOT2 (human) = RHOT2 (human) (UniProt Q8IXI1); assay: as above
TPM3 (human) = TPM3 (human) (UniProt P06753); assay: as above
CALML5 (human) = CALML5 (human) (UniProt Q9NZT1); assay: as above
GSN (human) = GSN (human) (UniProt P06396); assay: as above
RBM14 (human) = RBM14 (human) (UniProt Q96PK6); assay: as above
EMILIN1 (human) = EMILIN1 (human) (UniProt Q9Y6C2); assay: as above
GBF1 (human) = GBF1 (human) (UniProt Q92538); assay: as above
IL13RA2 (human) = IL13RA2 (human) (UniProt Q14627); assay: as above
SYNCRIP (human) = SYNCRIP (human) (UniProt O60506); assay: as above
NAP1L1 (human) = NAP1L1 (human) (UniProt P55209); assay: as above
PPFIBP1 (human) = PPFIBP1 (human) (UniProt Q86W92); assay: as above
KCTD5 (human) = KCTD5 (human) (UniProt Q9NXV2); assay: as above
SYNM (human) = SYNM (human) (UniProt O15061); assay: as above
CCT3 (human) = CCT3 (human) (UniProt P49368); assay: as above
TPM2 (human) = TPM2 (human) (UniProt P07951); assay: as above
PRRC2C (human) = PRRC2C (human) (UniProt Q9Y520); assay: as above
CPT1A (human) = CPT1A (human) (UniProt P50416); assay: as above
RPS26 (human) = RPS26 (human) (UniProt P62854); assay: as above
YTHDF2 (human) = biological target: T1, YTHDF2 (human) (UniProt Q9Y5A9); assay: as above
T1 sequence (looked up): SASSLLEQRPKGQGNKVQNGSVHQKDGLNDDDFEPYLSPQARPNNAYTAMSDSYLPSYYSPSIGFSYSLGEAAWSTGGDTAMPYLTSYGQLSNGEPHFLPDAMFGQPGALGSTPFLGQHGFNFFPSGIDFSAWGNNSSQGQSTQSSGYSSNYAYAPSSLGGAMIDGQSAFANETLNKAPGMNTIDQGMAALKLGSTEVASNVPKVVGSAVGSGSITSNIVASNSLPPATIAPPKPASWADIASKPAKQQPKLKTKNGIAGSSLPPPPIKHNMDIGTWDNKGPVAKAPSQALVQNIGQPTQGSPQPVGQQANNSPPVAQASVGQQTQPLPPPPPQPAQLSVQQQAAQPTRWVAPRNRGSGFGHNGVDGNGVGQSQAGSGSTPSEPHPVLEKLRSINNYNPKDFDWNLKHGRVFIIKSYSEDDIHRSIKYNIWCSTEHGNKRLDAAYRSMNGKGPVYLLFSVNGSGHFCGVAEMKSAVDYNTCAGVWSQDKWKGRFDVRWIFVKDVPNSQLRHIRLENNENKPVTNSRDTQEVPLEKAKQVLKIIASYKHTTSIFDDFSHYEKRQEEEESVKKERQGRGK

DHX9 (human) = DHX9 (human) (UniProt Q08211); assay: as above
RPL7 (human) = RPL7 (human) (UniProt P18124); assay: as above
PLOD1 (human) = PLOD1 (human) (UniProt Q02809); assay: as above
XPOT (human) = XPOT (human) (UniProt O43592); assay: as above
COPA (human) = COPA (human) (UniProt P53621); assay: as above
P4HA2 (human) = P4HA2 (human) (UniProt O15460); assay: as above
DDX20 = DDX20 (UniProt Q9UHI6); assay: co-IP, IgG control, C-FLAG B3GNT2 cell lysate, mass spectrometry
EMD = EMD (UniProt P50402); assay: as above

Q: For “C-terminal FLAG tagged B3GNT2 (from UniProt Q9NY97 1-397) (enzyme)”, which co-IP mass spectrometry count (SYNPO (human)) is on record?
A: The co-IP mass spectrometry count was 7.

Q: What about the co-IP/MS count, C-term flag (RPL6 (human)) of the same substance?
A: Its co-IP/MS count, C-term flag is 20.

Q: And the co-IP/MS count, C-term flag (HNRNPH1 (human))?
A: Its co-IP/MS count, C-term flag is 15.

Q: What about the co-IP/MS count, C-term flag (LAMC1 (human)) of the same substance?
A: Its co-IP/MS count, C-term flag is 4.

Q: And the co-IP mass spectrometry count (MAP4 (human))?
A: Its co-IP mass spectrometry count is 5.

Q: And the co-IP/MS count, C-term flag (ARPC1B (human))?
A: The co-IP/MS count, C-term flag was 5.

Q: What about the co-IP mass spectrometry count (RHOT2 (human)) of the same substance?
A: Its co-IP mass spectrometry count is 2.

Q: And the co-IP mass spectrometry count (TPM3 (human))?
A: Its co-IP mass spectrometry count is 5.

Q: What about the co-IP mass spectrometry count (CALML5 (human)) of the same substance?
A: The co-IP mass spectrometry count was 4.

Q: And the co-IP mass spectrometry count (GSN (human))?
A: Its co-IP mass spectrometry count is 3.

Q: What about the co-IP/MS count, C-term flag (RBM14 (human)) of the same substance?
A: Its co-IP/MS count, C-term flag is 2.

Q: What about the co-IP mass spectrometry count (EMILIN1 (human)) of the same substance?
A: The co-IP mass spectrometry count was 3.

Q: What about the co-IP mass spectrometry count (GBF1 (human)) of the same substance?
A: Its co-IP mass spectrometry count is 5.

Q: What about the co-IP mass spectrometry count (IL13RA2 (human)) of the same substance?
A: The co-IP mass spectrometry count was 2.

Q: And the co-IP mass spectrometry count (SYNCRIP (human))?
A: The co-IP mass spectrometry count was 13.

Q: What about the co-IP/MS count, C-term flag (NAP1L1 (human)) of the same substance?
A: Its co-IP/MS count, C-term flag is 4.

Q: What about the co-IP mass spectrometry count (PPFIBP1 (human)) of the same substance?
A: Its co-IP mass spectrometry count is 3.

Q: And the co-IP mass spectrometry count (KCTD5 (human))?
A: Its co-IP mass spectrometry count is 3.

Q: What about the co-IP mass spectrometry count (SYNM (human)) of the same substance?
A: The co-IP mass spectrometry count was 5.

Q: And the co-IP mass spectrometry count (CCT3 (human))?
A: Its co-IP mass spectrometry count is 5.

Q: And the co-IP/MS count, C-term flag (TPM2 (human))?
A: The co-IP/MS count, C-term flag was 4.

Q: And the co-IP/MS count, C-term flag (PRRC2C (human))?
A: The co-IP/MS count, C-term flag was 15.

Q: What about the co-IP/MS count, C-term flag (CPT1A (human)) of the same substance?
A: The co-IP/MS count, C-term flag was 2.

Q: And the co-IP mass spectrometry count (RPS26 (human))?
A: The co-IP mass spectrometry count was 11.

Q: What about the co-IP mass spectrometry count (YTHDF2 (human)) of the same substance?
A: The co-IP mass spectrometry count was 4.

Q: What about the co-IP mass spectrometry count (DHX9 (human)) of the same substance?
A: The co-IP mass spectrometry count was 5.

Q: And the co-IP mass spectrometry count (RPL7 (human))?
A: Its co-IP mass spectrometry count is 21.

Q: What about the co-IP/MS count, C-term flag (PLOD1 (human)) of the same substance?
A: Its co-IP/MS count, C-term flag is 4.

Q: What about the co-IP/MS count, C-term flag (XPOT (human)) of the same substance?
A: Its co-IP/MS count, C-term flag is 2.

Q: What about the co-IP/MS count, C-term flag (COPA (human)) of the same substance?
A: The co-IP/MS count, C-term flag was 2.

Q: What about the co-IP/MS count, C-term flag (P4HA2 (human)) of the same substance?
A: The co-IP/MS count, C-term flag was 4.

Q: With “IgG control (Millipore Sigma 12-371) (antibody)” as the substance, how does the co-IP mass spectrometry count (DDX20) read?
A: Its co-IP mass spectrometry count is 0.

Q: What about the co-IP mass spectrometry count (EMD) of the same substance?
A: The co-IP mass spectrometry count was 2.
